Data as given in IntAct's records for PubMed 14992724.

B1: Meiosis-specific protein SPO11 (Saccharomyces cerevisiae), P23179 (parent)
chain: MALEGLRKKYKTRQELVKALTPKRRSIHLNSNGHSNGTPCSNADVLAHIKHFLSLAANSLEQHQQPISIVFQNKKKKGDTSSPDIHTTLDFPLNGPHLCTHQFKLKRCAILLNLLKVVMEKLPLGKNTTVRDIFYSNVELFQRQANVVQWLDVIRFNFKLSPRKSLNIIPAQKGLVYSPFPIDIYDNILTCENEPKMQKQTIFPGKPCLIPFFQDDAVIKLGTTSMCNIVIVEKEAVFTKLVNNYHKLSTNTMLITGKGFPDFLTRLFLKKLEQYCSKLISDCSIFTDADPYGISIALNYTHSNERNAYICTMANYKGIRITQVLAQNNEVHNKSIQLLSLNQRDYSLAKNLIASLTANSWDIATSPLKNVIIECQREIFFQKKAEMNEIDARIFEYK
partner: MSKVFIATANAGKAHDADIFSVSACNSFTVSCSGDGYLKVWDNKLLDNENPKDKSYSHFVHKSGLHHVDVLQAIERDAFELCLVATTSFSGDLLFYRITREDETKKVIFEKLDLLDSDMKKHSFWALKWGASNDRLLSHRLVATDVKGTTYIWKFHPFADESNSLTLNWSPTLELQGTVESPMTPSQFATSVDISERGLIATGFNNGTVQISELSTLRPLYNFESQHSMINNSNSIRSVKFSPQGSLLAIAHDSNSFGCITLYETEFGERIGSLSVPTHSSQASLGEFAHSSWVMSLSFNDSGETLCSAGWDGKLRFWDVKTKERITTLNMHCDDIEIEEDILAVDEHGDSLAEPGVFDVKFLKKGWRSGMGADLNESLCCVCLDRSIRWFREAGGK

Variants of: B1
Details: with ski8_yeast SKI8, Q02793

Row | Variant | effect of a mutation on the interaction
1 | Q376A | disrupting interaction strength
2 | R377A;E378A | disrupting interaction strength
